According to patent publication JPH06217786A:

Target: FHV−1-K1ウイルス粒子 (feline herpesvirus-1, strain K1, virus particles; crude ammonium sulfate precipitate)
Assay: cell-based or functional assay

B1: 抗FHV−1キメラ抗体FH2 (cat-type anti-FHV-1 chimeric antibody FH2) (antibody, part only; not given: cat constant regions, part only)
heavy, part: QVTLKESGPGILQPSQTLSLTCSFSGFSLSTSGMGAGWIRQPSGKGLEWLAHIWWDDVKRYNPALKSRLTISKDTSSSQVFLKIASVDTADTATYFCVRSQIYFDYDGAWFPFWGQGTLVTVSA
light, part: DIVLTQSPATLSVTPGDSVSLSCRASQSISNNLHWYQQKSHESPRLLIKYASQSISGIPSRFSGSGSGTDFTLSINSVETEDFGMYFCQQSNSWPHTFGAGTKLELK
For B1, the 最低有効中和濃度 (lowest effective neutralising concentration; 100 TCID50 FHV-1, CPE on CRFK cells) was 1.95 µg/mL.
